In the supplement of paper PMC9732359:
± gives the uncertainty stated by the source.

Assay: protein stability index of a GFP-peptide fusion (yeast GPS) (PSI 1-4); higher = more stable; sorted into four equal gates, so the index is relative within each strain
Summary of the method: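 Tiled yeast protein peptides of 17 residues were each joined downstream of GFP, on plasmids that also express Cherry. The pooled library was maintained in yeast, and mid-log cultures in leucine-free medium were sorted into four equal gates on the GFP/Cherry ratio. Plasmids from every gate were amplified by PCR and sequenced on Illumina, with barcodes linking reads to strains. The protein stability index of a peptide is its gate-number-weighted read frequency summed over the gates.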

SKVASSLVIIILVKRYS [ECM29] showed a protein stability index (doa10∆) of 1.85 ± 0.054, a protein stability index (pdr5∆) of 1.44 ± 0.042 and a protein stability index (san1∆) of 1.71 ± 0.094. The protein stability index (ubr1∆) was 2.12 ± 0.051.
With SKVQFDAKTSYPNEVLK [REC8] the protein stability index (doa10∆) was 2.77 ± 0.05, the protein stability index (pdr5∆) was 3.08 ± 0.072 and the protein stability index (san1∆) was 3.06 ± 0.059. The protein stability index (ubr1∆) was 3.04 ± 0.067.
SKVREEVGDVCINELDN [RPO31] gave a protein stability index (doa10∆) of 3.15 ± 0.095, a protein stability index (pdr5∆) of 2.32 ± 0.06 and a protein stability index (san1∆) of 2.84 ± 0.075. The protein stability index (ubr1∆) was 3.18 ± 0.065.
SKVTKKHGAKKVAKRTK [RPL27B] gave a protein stability index (doa10∆) of 3.42 ± 0.27, a protein stability index (pdr5∆) of 3.02 ± 0.2 and a protein stability index (san1∆) of 3.27 ± 0.2. For the same sequence, the protein stability index (ubr1∆) was 3.26 ± 0.22.
With SKVYFNNQSKEKADYED [RPN12] the protein stability index (doa10∆) was 2.56 ± 0.076, the protein stability index (pdr5∆) was 2.64 ± 0.067 and the protein stability index (san1∆) was 2.67 ± 0.098. The protein stability index (ubr1∆) was 2.48 ± 0.054.
Work on SKVYYNLGEYESAVKYA [RPN2] yielded a protein stability index (doa10∆) of 2.62 ± 0.16, a protein stability index (pdr5∆) of 2.9 ± 0.093 and a protein stability index (san1∆) of 2.8 ± 0.084. The protein stability index (ubr1∆) was 2.84 ± 0.056.
SKYFIIDSFFLYVLPSF [YMR129W/POM152] showed a protein stability index (doa10∆) of 1.55 ± 0.045, a protein stability index (pdr5∆) of 1.65 ± 0.035 and a protein stability index (san1∆) of 1.75 ± 0.06. For the same sequence, the protein stability index (ubr1∆) was 1.23 ± 0.028.
Work on SLADNEIALKGLESLLN [YCS4] yielded a protein stability index (doa10∆) of 2.81 ± 0.056, a protein stability index (pdr5∆) of 2.5 ± 0.067 and a protein stability index (san1∆) of 2.68 ± 0.075. It also gave a protein stability index (ubr1∆) of 2.94 ± 0.073.
For SLAPEADLDSLIIRNDS [RPT3], the protein stability index (doa10∆) was 2.92 ± 0.11, the protein stability index (pdr5∆) was 3.01 ± 0.08 and the protein stability index (san1∆) was 2.77 ± 0.055. It also gave a protein stability index (ubr1∆) of 2.82 ± 0.071.
Work on SLDQGDAEEDSQVENRV [SMC4] yielded a protein stability index (ubr1∆) of 2.83 ± 0.17.
With SLDSCTAAFTAMICEAK [YJR042W/NUP85] the protein stability index (doa10∆) was 2.79 ± 0.13, the protein stability index (pdr5∆) was 2.51 ± 0.11 and the protein stability index (san1∆) was 2.99 ± 0.081. It also gave a protein stability index (ubr1∆) of 2.81 ± 0.096.
Work on SLEHELKRSTELLETVS [YIL149C/MLP2] yielded a protein stability index (doa10∆) of 2 ± 0.057, a protein stability index (pdr5∆) of 2.21 ± 0.054 and a protein stability index (san1∆) of 2.25 ± 0.071. For the same sequence, the protein stability index (ubr1∆) was 2.17 ± 0.037.
In the case of SLFGSIGDDGYDLLIST [SRB5], the protein stability index (doa10∆) is reported as 2.17 ± 0.087, the protein stability index (pdr5∆) is reported as 2.07 ± 0.14 and the protein stability index (san1∆) is reported as 3.05 ± 0.071. The protein stability index (ubr1∆) was 3.5 ± 0.11.
SLGDGTNYYLTTARNDL [CSL4] gave a protein stability index (doa10∆) of 2.66 ± 0.068, a protein stability index (pdr5∆) of 2.71 ± 0.068 and a protein stability index (san1∆) of 2.83 ± 0.049. The protein stability index (ubr1∆) was 2.91 ± 0.1.
SLGHQTSLITAVYGPRS [MTR3] gave a protein stability index (doa10∆) of 2.54 ± 0.052, a protein stability index (pdr5∆) of 2.24 ± 0.056 and a protein stability index (san1∆) of 2.63 ± 0.061. The protein stability index (ubr1∆) was 1.81 ± 0.053.
Sequence SLHTKNVFGTLQRHSGI [YLR018C/POM34] has a protein stability index (doa10∆) of 2.56 ± 0.066, a protein stability index (pdr5∆) of 2.5 ± 0.071 and a protein stability index (san1∆) of 2.31 ± 0.15. The protein stability index (ubr1∆) was 2.97 ± 0.06.
Sequence SLIEDFVDGIANSKKST [SRB7] has a protein stability index (doa10∆) of 3.29 ± 0.14, a protein stability index (pdr5∆) of 3.35 ± 0.092 and a protein stability index (san1∆) of 3.03 ± 0.062. For the same sequence, the protein stability index (ubr1∆) was 3.04 ± 0.062.
For SLKGVDPKFRRNHKHAL [RPL29], the protein stability index (doa10∆) was 1.45 ± 0.068, the protein stability index (pdr5∆) was 1.77 ± 0.077 and the protein stability index (san1∆) was 1.78 ± 0.082. For the same sequence, the protein stability index (ubr1∆) was 1.78 ± 0.12.
SLKNVTEKNREIYKQLN [YIL149C/MLP2] showed a protein stability index (doa10∆) of 3.31 ± 0.097, a protein stability index (pdr5∆) of 2.76 ± 0.11 and a protein stability index (san1∆) of 3.18 ± 0.056. The protein stability index (ubr1∆) was 2.99 ± 0.05.
For SLKTKLNSNIRAGVTIP [SNF5], the protein stability index (doa10∆) was 2.6 ± 0.077, the protein stability index (pdr5∆) was 2.72 ± 0.051 and the protein stability index (san1∆) was 2.36 ± 0.066. It also gave a protein stability index (ubr1∆) of 2.63 ± 0.047.
In the case of SLLTLVGSVTYQVDEDV [YJL039C/NUP192], the protein stability index (doa10∆) is reported as 1.8 ± 0.1, the protein stability index (pdr5∆) is reported as 1.67 ± 0.13 and the protein stability index (san1∆) is reported as 2.66 ± 0.098. The protein stability index (ubr1∆) was 1.23 ± 0.14.
SLNLGIGIVEIAHENEQ [SRB8] gave a protein stability index (doa10∆) of 1.43 ± 0.11, a protein stability index (pdr5∆) of 2.07 ± 0.084 and a protein stability index (san1∆) of 2.52 ± 0.11. It also gave a protein stability index (ubr1∆) of 2.08 ± 0.087.
For SLNPALQEKISTELNNK [SWI1], the protein stability index (doa10∆) was 2.8 ± 0.11, the protein stability index (pdr5∆) was 3.05 ± 0.097 and the protein stability index (san1∆) was 3.29 ± 0.069. For the same sequence, the protein stability index (ubr1∆) was 3.27 ± 0.083.
SLPEFFTNRIPSKTPEV [SWI3] gave a protein stability index (doa10∆) of 2.56 ± 0.066, a protein stability index (pdr5∆) of 2.53 ± 0.054 and a protein stability index (san1∆) of 2.65 ± 0.062. For the same sequence, the protein stability index (ubr1∆) was 2.66 ± 0.059.
Sequence SLPEGLLKSLWDYVKKN [TAF14] has a protein stability index (doa10∆) of 3.01 ± 0.17, a protein stability index (pdr5∆) of 2.02 ± 0.079 and a protein stability index (ubr1∆) of 3.13 ± 0.093.
For SLPLIVFLRNRLKYALN [RPS4A], the protein stability index (doa10∆) was 1.4 ± 0.059, the protein stability index (pdr5∆) was 1.58 ± 0.092 and the protein stability index (san1∆) was 1.48 ± 0.12. For the same sequence, the protein stability index (ubr1∆) was 1.7 ± 0.043.
SLYAYCHSKLRGQQVEN [GRR1] showed a protein stability index (doa10∆) of 2.51 ± 0.1, a protein stability index (pdr5∆) of 2.52 ± 0.092 and a protein stability index (san1∆) of 2.54 ± 0.1. It also gave a protein stability index (ubr1∆) of 2.6 ± 0.097.
With SLYKVSFLEKPKFAIQD [YMR129W/POM152] the protein stability index (doa10∆) was 2.93 ± 0.11, the protein stability index (pdr5∆) was 2.68 ± 0.12 and the protein stability index (san1∆) was 2.77 ± 0.071. It also gave a protein stability index (ubr1∆) of 2.53 ± 0.13.
SMHLLKDWTDTFVYILE [SRB8] gave a protein stability index (doa10∆) of 3.06 ± 0.057, a protein stability index (pdr5∆) of 2.95 ± 0.06 and a protein stability index (san1∆) of 2.88 ± 0.047. The protein stability index (ubr1∆) was 2.97 ± 0.059.
SMNNDFQQQQQQQQQQQ [PGD1] showed a protein stability index (doa10∆) of 2.43 ± 0.1, a protein stability index (pdr5∆) of 2.9 ± 0.16 and a protein stability index (san1∆) of 2.54 ± 0.11. It also gave a protein stability index (ubr1∆) of 2.29 ± 0.14.
Sequence SNDEKQKAQDVDVSMQD [RPN13] has a protein stability index (doa10∆) of 3.17 ± 0.091, a protein stability index (pdr5∆) of 3.27 ± 0.064 and a protein stability index (san1∆) of 3.22 ± 0.041. The protein stability index (ubr1∆) was 3.31 ± 0.044.
For SNDIIDKPYLLRIVTHL [YDL116W/NUP84], the protein stability index (doa10∆) was 1.93 ± 0.11, the protein stability index (pdr5∆) was 1.99 ± 0.09 and the protein stability index (san1∆) was 3.09 ± 0.15. For the same sequence, the protein stability index (ubr1∆) was 1.93 ± 0.076.
With SNIDIRVRVTGGGHVSQ [RPS16A] the protein stability index (doa10∆) was 2.02 ± 0.093, the protein stability index (pdr5∆) was 2.31 ± 0.063 and the protein stability index (san1∆) was 2.78 ± 0.13. It also gave a protein stability index (ubr1∆) of 2.08 ± 0.044.
With SNLSQNVVPYHRNTSDY [SWI1] the protein stability index (doa10∆) was 2.65 ± 0.083, the protein stability index (pdr5∆) was 3.07 ± 0.086 and the protein stability index (san1∆) was 2.82 ± 0.1. For the same sequence, the protein stability index (ubr1∆) was 2.92 ± 0.058.
In the case of SNNDEDDKDCTIKISTN [RGR1], the protein stability index (doa10∆) is reported as 2.94 ± 0.063, the protein stability index (pdr5∆) is reported as 3.13 ± 0.062 and the protein stability index (san1∆) is reported as 2.89 ± 0.054. For the same sequence, the protein stability index (ubr1∆) was 3 ± 0.054.
SNRLLMDVDQFDFLDDG [YJR042W/NUP85] showed a protein stability index (doa10∆) of 1.49 ± 0.097, a protein stability index (pdr5∆) of 1.37 ± 0.15 and a protein stability index (san1∆) of 1.69 ± 0.27. It also gave a protein stability index (ubr1∆) of 1.23 ± 0.099.
SNTSTLKNMLYVLSTAV [BRR2] showed a protein stability index (doa10∆) of 1.57 ± 0.066, a protein stability index (pdr5∆) of 1.53 ± 0.09 and a protein stability index (san1∆) of 1.17 ± 0.18. The protein stability index (ubr1∆) was 1.38 ± 0.059.
SNVAAIFKGIGGNFKDL [GAL11] showed a protein stability index (doa10∆) of 2.78 ± 0.11, a protein stability index (pdr5∆) of 2.76 ± 0.079 and a protein stability index (san1∆) of 2.58 ± 0.079. For the same sequence, the protein stability index (ubr1∆) was 2.72 ± 0.1.
SPEQIDASPDSLEALID [YCS4] showed a protein stability index (doa10∆) of 2.92 ± 0.054, a protein stability index (pdr5∆) of 2.88 ± 0.049 and a protein stability index (san1∆) of 2.94 ± 0.044. For the same sequence, the protein stability index (ubr1∆) was 3.05 ± 0.041.
With SPERFATLGIDPPKGIL [RPT1] the protein stability index (doa10∆) was 2.74 ± 0.066, the protein stability index (pdr5∆) was 2.76 ± 0.058 and the protein stability index (san1∆) was 2.42 ± 0.078. The protein stability index (ubr1∆) was 2.77 ± 0.045.
SPFRPLEKTSRILNFFD [YMR153W/NUP53] showed a protein stability index (doa10∆) of 2.85 ± 0.13, a protein stability index (pdr5∆) of 3.22 ± 0.093 and a protein stability index (san1∆) of 2.72 ± 0.087. For the same sequence, the protein stability index (ubr1∆) was 2.83 ± 0.07.
SPFSITFSVYHESTSRT [YMR129W/POM152] showed a protein stability index (doa10∆) of 2.36 ± 0.11, a protein stability index (pdr5∆) of 2.55 ± 0.062 and a protein stability index (san1∆) of 2.76 ± 0.056. For the same sequence, the protein stability index (ubr1∆) was 2.33 ± 0.06.
Sequence SPHGLINLNVDDDILII [SRB4] has a protein stability index (doa10∆) of 3.1 ± 0.074, a protein stability index (pdr5∆) of 3.2 ± 0.075 and a protein stability index (san1∆) of 3.11 ± 0.054. It also gave a protein stability index (ubr1∆) of 3.05 ± 0.045.
In the case of SPLQSSKSKQSFTQGEL [YMR129W/POM152], the protein stability index (doa10∆) is reported as 2.88 ± 0.055, the protein stability index (pdr5∆) is reported as 2.8 ± 0.061 and the protein stability index (san1∆) is reported as 2.73 ± 0.055. For the same sequence, the protein stability index (ubr1∆) was 2.95 ± 0.05.
